{"source": "patent US20140302075A1", "biological_target": "human TLR4 receptor (expressed on HEK-Blue TLR4 reporter cells) (human) (UniProt O00206)", "sequence (O00206 24-839)": "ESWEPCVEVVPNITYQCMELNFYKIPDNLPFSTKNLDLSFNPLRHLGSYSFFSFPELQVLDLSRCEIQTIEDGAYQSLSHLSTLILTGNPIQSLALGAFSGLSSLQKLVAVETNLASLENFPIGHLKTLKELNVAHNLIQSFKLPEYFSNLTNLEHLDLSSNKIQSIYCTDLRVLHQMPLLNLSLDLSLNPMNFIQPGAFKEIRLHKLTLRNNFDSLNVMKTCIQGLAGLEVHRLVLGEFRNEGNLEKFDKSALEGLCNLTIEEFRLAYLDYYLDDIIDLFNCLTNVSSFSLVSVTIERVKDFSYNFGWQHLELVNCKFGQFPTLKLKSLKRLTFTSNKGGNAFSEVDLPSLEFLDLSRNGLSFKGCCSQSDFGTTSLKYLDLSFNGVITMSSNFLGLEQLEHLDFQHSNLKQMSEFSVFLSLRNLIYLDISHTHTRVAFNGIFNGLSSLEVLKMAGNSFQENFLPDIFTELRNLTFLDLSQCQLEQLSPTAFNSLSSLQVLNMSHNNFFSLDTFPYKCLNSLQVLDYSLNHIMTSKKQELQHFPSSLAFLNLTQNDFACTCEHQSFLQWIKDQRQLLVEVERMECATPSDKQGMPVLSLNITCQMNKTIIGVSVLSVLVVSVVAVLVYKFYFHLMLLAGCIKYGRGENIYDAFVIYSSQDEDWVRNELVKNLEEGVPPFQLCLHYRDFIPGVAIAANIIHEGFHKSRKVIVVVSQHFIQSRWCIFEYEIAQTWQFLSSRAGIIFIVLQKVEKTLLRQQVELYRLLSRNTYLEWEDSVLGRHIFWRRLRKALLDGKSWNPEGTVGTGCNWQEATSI", "experiment": "cell-based or functional assay", "data": [{"substance": "AspRS1^N1 (C76S) (amino acids 1-154 of human aspartyl-tRNA synthetase with Cys76 to Ser, C-terminal V5His tag) (ligand)", "values": [{"measurement": "Fold increase in activity over AspRS1^N1 (TLR4 Activity; SEAP reporter, HEK-Blue TLR4 cells)", "value": 3.6, "unit": "fold"}]}]}
